Values quoted from earlier work in PMC5081098.

Target: CCL21 (Homo sapiens) (UniProt O00585)
Chain of UniProt O00585 (O00585 24-134): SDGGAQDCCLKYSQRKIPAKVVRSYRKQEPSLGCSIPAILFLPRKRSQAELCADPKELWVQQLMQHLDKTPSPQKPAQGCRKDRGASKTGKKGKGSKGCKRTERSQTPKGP

Kd: 70 nM
Substance: podoplanin (from UniProt Q86YL7)
